Assays:
[1] = molecular target: MERS-CoV spike glycoprotein S1 N-terminal domain (residues 18-353), wild type (MERS-CoV, EMC strain (NTD sequence …, UniProt K9N5Q8)); assay: cell-based or functional assay
[2] = molecular target: recombinant receptor-binding domain of MERS-CoV S glycoprotein (residues 367-606) (MERS-CoV, EMC/2012 (strain used …, UniProt K0BRG7)); assay: ELISA; settings: both partners purified

Sequence of MERS-CoV spike glycoprotein S1 N-terminal domain (residues 18-353), wild type (MERS-CoV, EMC strain (K9N5Q8 18-353): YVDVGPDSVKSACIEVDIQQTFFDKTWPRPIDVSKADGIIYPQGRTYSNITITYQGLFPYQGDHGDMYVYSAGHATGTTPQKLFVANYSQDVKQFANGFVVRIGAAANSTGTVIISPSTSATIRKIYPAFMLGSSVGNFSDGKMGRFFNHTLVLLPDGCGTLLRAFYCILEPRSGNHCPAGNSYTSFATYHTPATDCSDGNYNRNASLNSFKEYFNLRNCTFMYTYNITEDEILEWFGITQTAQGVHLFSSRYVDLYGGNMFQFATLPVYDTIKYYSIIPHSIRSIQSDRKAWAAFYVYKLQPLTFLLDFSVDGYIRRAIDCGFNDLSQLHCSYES

Binder | IC50 of neutralisation of pseudotyped MERS-CoV on Huh7 cells (luciferase) [1] | binding result [2] | IC50 of inhibition of cell entry of pseudotyped MERS-CoV (Huh7 cells) [1]
mouse monoclonal antibody 7D10 (antibody, V domains shown) VH: EVQLVESGAEVVKPGASVKMSCKASGYPFTSYNIHWIKQTPGQGLEWIGAIYPGNGDTSYTQKFKVKATLTSDKSSSTAYMQLSSLTSEDSAVYFCARYGNYPSYAMDYWGQGTSVTVSS VL: DIVMTQSPASLTVSLGQRATISCRASKSVSASGYNYLHWYQQRPGQPPKLLIYLAFNLESGVPARFNGSGSGTDFTLNIHPVEEEDAATYYCQHSRDLPFTFGSGTKLEIK | ~0.18 mg/L | no binding (tested: 4 μg mL^−1) | –
7D10 scFv (VL, triple GGGS linker, VH) (scFv, V domains shown) VH: EVQLVESGAEVVKPGASVKMSCKASGYPFTSYNIHWIKQTPGQGLEWIGAIYPGNGDTSYTQKFKVKATLTSDKSSSTAYMQLSSLTSEDSAVYFCARYGNYPSYAMDYWGQGTSVTVSS VL: DIVMTQSPASLTVSLGQRATISCRASKSVSASGYNYLHWYQQRPGQPPKLLIYLAFNLESGVPARFNGSGSGTDFTLNIHPVEEEDAATYYCQHSRDLPFTFGSGTKLEIK | – | – | 0.28 mg/L

— paper PMC6624210 (Nature Communications, 2019)
